The nanobody polyreactivity screen of Harvey et al. (2022)

Test: yeast display, Sf9 membrane polyspecificity reagent, FACS + sequencing; frameworks hold sequencing errors
Outline: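 Using colony PCR, genes from sorted yeast display clones were amplified, then sequenced on MiSeq at 2 × 250 and filtered by CDR length. The clones had been stained with 10% biotinylated, detergent-solubilized Sf9 membrane reagent for 1 hour at 4 °C and sorted by FACS into low and high (top ~1%) gates on anti-HA and streptavidin fluorescence. Polyreactivity labels come from the gate of origin.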

| Sequence | polyreactivity (PSR sort gate) |
| --- | --- |
| QVQLVESGGGLDQAGGSLRLSCAASGITFPAYAMGLYRQAPGKEREWVAAITSGSSTNYADSVKGRFTISRDNAKNTVYLHLNSLKPEDTAVYYCAAQASYWGYRSGNRYGYWGQGTQVTVSS | high polyreactivity |
| QVQLVESGGGLDQAGGSLRLSCAASGITFVRYAMGWYRQAPGKERELVAAISWSGGSTYYADSVKGRFTISRDNEKNTVYLQMNSLKPEDTAVYYCAAQHDVRYDYWGQGTQVTVSS | low polyreactivity |
| QVQLVESGGGLDQAGGSLRLSCAASGLIFRRYAMGWYRQAPGKERELVAAISRSGGSTYYADSVKGRFTISRDNAKNTVYLQMNSLKPEDTAVYYCAARTRSDNSYHGGEYWGQGTQVTVSS | high polyreactivity |
| QVQLVESGGGLDQAGGSLRLSCAASGRIFEYNAMGWYRQAPGKERELVAAINYNDVSTYYADSVKGRFTISRDNAKNTVFFQINSLKPEDTAVYYCNVYGDKWSAAYGEYVYWGQGTQVTVSS | low polyreactivity |
| QVQLVESGGGLDQAGGSLRLSCAASGRIFFAYAMGWYRQAPGKEREFVAAISDNDGSTFYADSVKGRFTISRDNAKNPVYLQMNSLKPEDTAVYYCNADLGYVYDYWGQGTQVTVSS | low polyreactivity |
| QVQLVESGGGLDQAGGSLRLSCAASGRIFRFYAMGWYRQATGKERELVAAISSRGGSTYYADSVKGRFTISRDNAKNTFYLQMNSLKPEDTAVYYCAKKTWRDYSYNYWGQGTQVTVSS | high polyreactivity |
| QVQLVESGGGLDQAGGSLRLSCAASGRIFRRYAMGWYRQAPGKERELVAAISTRGGSTYYADSVKGRFTISRDHAKNTVYLQMNSLKPEDTAVYYCNAEARSRRYRYDYWGQGTQVTVSS | high polyreactivity |
| QVQLVESGGGLDQAGGSLRLSCAASGRIFTYNAMGWYRPAPGKERELVAVISRRGGSTYYADSVKGRFTISRDNAKNTVYLQMNSLKPEDTAVYYCAAGGSVFYDNRYDYWGQGTQVTVSS | low polyreactivity |
| QVQLVESGGGLDQAGGSLRLSCAASGRIFVGYARGWYRQAPVKERELVASITGRGTSTYYADSVKGRFTISRDNAKNTVYLQMNSLKPEDTAVYYCNALYRKYRNQWYISNYGYYYWGQGTQVTVSS | low polyreactivity |
| QVQLVESGGGLDQAGGSLRLSCAASGRIFVIYAMGWYRQAPGKERELVAVINDDGSTNYADSVKGRFTISRDNAKNTVYLQMNSLKPEDTAVYYCAAESARYLTFEFDYWGQSTQVTVSS | low polyreactivity |
| QVQLVESGGGLDQAGGSLRLSCAASGRIFVPNAMGWYRQAPGKERELVAAINWGGGSTYYADSVKGRFTISRDNAKNTVYLQMNSLKPEDTAVYYCAADHPYTIGVLPNQQFDYWGQGPQVTVSS | low polyreactivity |
| QVQLVESGGGLDQAGGSLRLSCAASGRILRYYTMGWYRQAPGKERELVAAISRSGGGTYYADSVKGRFTISRDNAKNTVYLQMNSLKPEDTAVYYCAKQTHQKAYDYWGQGTQVTVSS | high polyreactivity |
| QVQLVESGGGLDQAGGSLRLSCAASGRTFAHNAMGWYRQAPGKERELVAAITWSGGTTYYADSVKGRFTISRDNAKNTVYLQMNSLKPEDTAVYYCNTYSYLADPKYDYWGQGTQVTVSS | low polyreactivity |
| QVQLVESGGGLDQAGGSLRLSCAASGRTFRYYAMGWYRQAPWKESDLVATITGSGGSTYYADSVKGRFTISRDNSKNTVYLQMYSLKPEDTAVYYCNARKVRYPYRWYDYWGQGTQVTVSS | high polyreactivity |
| QVQLVESGGGLDQAGGSLRLSCAASGRTFWAPYTMGWYRQAPWKERELVAAISKSTTRTYYADSVKGRFTISRDNAKNTVYLQMTSLKPEDTAVYYCAVDSLYASRWVDYWGQGTQVTVSS | high polyreactivity |
| QVQLVESGGGLDQAGGSLRLSCAASGRTFYRYAMGWYRQEPGKERELVATISRSGGSTYYADSVKGRFTISRDNAKNTVYLQMNSLKPEDTAVYYCNAEGYPWGFYTYDYWGQGTQVTVSS | low polyreactivity |
| QVQLVESGGGLDQAGGSLRLSCAASGSIFANNAMGWYRQAPGKERELVATIRSGGTTNYADSVKGRFTISRDNAKNTVYLQMNSLKPEDTAVYYCAAETVSYYSKYDYWGQGTQVTVSS | low polyreactivity |
| QVQLVESGGGLDQAGGSLRLSCAASGSIFAPNAMGWYRQAPGKERELVAAITSSGGRTYYADSVKGRFTISRDNAKNTVYLQMNSLKPEDTAVYYCNACYYVRRDYDYWGQGTQVTVSS | low polyreactivity |
| QVQLVESGGGLDQAGGSLRLSCAASGSIFEKYAMGWYRQAPGKERELVAGISRSGGSTYYADSVKGRFTISRDNAKNTVYLQMNSLKLEDTAFYFCAARYTRYGSFYGFGYWGQGTQVTVSS | high polyreactivity |
| QVQLVESGGGLDQAGGSLRLSCAASGSIFFYYAMVWYRQAPGKERELVADITSGGTTYYADSVKGRFTISRDNAKNTVYLQLNSLKPEDTAVYYCNACLYPGQRPDYTNYSSDYLGQGTQVTVSS | low polyreactivity |
| QVQLVESGGGLDQAGGSLRLSCAASGSIFGVNDMVWNRQAPGKERELVAAISGGGSTYYADSVKGRFTISRDNAKNTVYLQMNSLKPEDTAVYYCARRRTKSYTRKYDYWGQGTQVTVSS | low polyreactivity |
| QVQLVESGGGLDQAGGSLRLSCAASGSIFRWYAMGWYRQAPGKEREFVAAITSSGGSTYYADSVKGRFTISRDTAKNTVYLQINSVKPEDTAVYYCNRRYQPYSYDYWGEGTQVTVSS | high polyreactivity |

| Sequence | polyreactivity (PSR sort gate) |
| --- | --- |
| QVQLVESGGGLDQAGGSLRLSCAASGSIFVHYAMGWYRQAPGKERELVAGITFRGGRTYYADSVKGRFTISRDNAKNTVYLQMNSLKPEDTAVYYCAALYSVRGGYPSSHRIRMEYCGQGTQVTVSS | high polyreactivity |
| QVQLVESGGGLDQAGGSLRLSCAASGSIFYRNAMGWYRKAPGKERELVAAISWSGSRTYYADSVKVRFTISRDNAKNTVYLQMISLKPEDTAVYYCNRQYNQWIHYYYRMDYWGQGNQVTVSS | high polyreactivity |
| QVQLVESGGGLDQAGGSLRLSCAASGSTFDSNTMGRSRQAPGKERELDAAITVSGGSTHYADSVKGRFTISRDNAKNTVYLQMNSLKPEDTAVYYCNRRSYGYGAFSGYDYWGQGTQVTVSS | low polyreactivity |
| QVQLVESGGGLDQAGGSLRLSCAASGSTFDYYARGWYRQAPGKERELVAAISSSGGSTYYADSVKGRFTISRDNANYTVYLQRNSLKPEDTAVYYCNKYGGTLRSDYWGQGTQVTVSS | high polyreactivity |
| QVQLVESGGGLDQAGGSLRLSCAASGSTFKHNAMGWYRQAPAKERVLVAGISWGGSSTYYADSVKGRFTISRDNAKNTVYLQMNSLKPDDTAVYYCAKGGYRRYGYDYWGQGTQVTVSS | low polyreactivity |
| QVQLVESGGGLDQAGGSLRLSCAASGSTFPYYAMGWYRQAPGKERELVARISYRGGRTYYADSVKGRFTISRDNAKNTVYLQMNSLKAEDTAVYYCAADRWVYYHSTRYDYWGQGTQVTVSS | high polyreactivity |
| QVQLVESGGGLDQAGGSLRLSCAASGSTFRNNAMGWYRQAPGKERELVAAISRGGGSTYYADSVKGRFTISRDNAKNNVYLQMTSLKQDDTAVYDCARRPTGIYDYWGQGTQVTVSS | high polyreactivity |
| QVQLVESGGGLDQAGGSLRLSCAASGSTFRYYAMGWYRQAPGKERELVAAINWSGGTTSYADSVKGRFTISRDNAKNTVYLQMNSLKPEDTAVYYCAVPYLYKYSRYDYWGQGTQVTVSS | high polyreactivity |
| QVQLVESGGGLDQAGGSLRLSCAASGSTFTSNAMGWYRQAPGKERELVAAITWSGARTYYADSVKGRFTISRDNAKNTVYLQLNSLKPEDTAVYYCAAYIAGVTGGSGYYYWGQGTQVTVSS | high polyreactivity |
| QVQLVESGGGLDQAGGSLRLSCAASGSTFYDNAMRWYRQAPGKERELVADISSGGRTNYADSVKGRFTISRDNAKNTVYLQMNCLKPEDTAVYYCAARLYVLRWYPYDYWGQGTQVTVSS | low polyreactivity |
| QVQLVESGGGLDQAGGSLRLSCAASGSTLVYNDMGWYRQAPGIEREFVAAIRSNDGSTYYADSVKGRFTISGDNAKNTVYLQMNSLKPEDTAGYYCAVVYGYPYLRGYVYGFNYWGQGTQVTVSS | low polyreactivity |
| QVQLVESGGGLDQAGGSLRLSCAASGYTFLIYAMGWYRQAPGKERELVAAISYRDGRTYYADSVKGRFTISRDNAKNTVYLQMNSLNPEDTAVYYCAATLFYQPYRSYYYWGQGTQVTVSS | high polyreactivity |
| QVQLVESGGGLDQAGGSLRLSCAASGYTFPYYTMGWYRQAPGKESELVATITRRGDSTYYADSVKGRFTISRDNAKNTVYLQMNSLKPEDTAVYYCNTASYGRHHFRKSSKMDYWGQGTQVTVSS | high polyreactivity |
| QVQLVESGGGLDQAGGSLRLSCAASGYVMGWYRQAPGKERELVASITRGTSTYYADSVKGRFTISRDNAKNTVYLQMNSLKPEDTAVYYCAARTTSGEWPPGKIGTYLYDYWGQGTQVTVSS | low polyreactivity |
| QVQLVESGGGLDQAGGSLRLSCADSASTFYRYAKGWSRQAPGKEWELVAAITRTGGSTYADSVKGRFTISRDNAKNTVYLQMNSLKPEDTAVYFCAVQRYFVSSISPFYYWGQGTQVTVSS | low polyreactivity |
| QVQLVESGGGLDQAGGSLRLSCADSGSIFYVYTMGWYRQAPGKERELVAAITSGDGTYYADSVKGRFTISRDNAKSTVYLQMNSLKPEDTAVYYCNADESAYWKLRHGLGSDSWGQGTQVTVSS | low polyreactivity |
| QVQLVESGGGLDQAGGSLRLSCAPSGSTFVGYALGWYRQAPGKERELVAAITRGGGSTYYADSVKGRFTISRDNAKNTVYLQMNSLKPEDTAVYYCAAYQHPGLRTSYEYWGQGTQVTVSS | low polyreactivity |
| QVQLVESGGGLDQAGGSLRLSCDASGGTFLSYAMGWYRQAHGKERELVARINSGSSTYYADSVKGRFTISRDNAKNTVYLQMNSLKPEDTAVYYCATRWVSRTHGYWGQGTQVTVSS | low polyreactivity |
| QVQLVESGGGLDQAGGSLRLSCPASGRTISRNTMGWYRPAPGKERELVAGITYGGDRTYYADSVKGRFTISRDNAKNTVYLQMNSLKPEDTAVYYCAAPWYWKGLRDYWGQGTQVTVSS | low polyreactivity |
| QVQLVESGGGLDQAGGSLRLSCPASGSTFSNYAMGWYRQEPGKERELVAAISVRGGSTYYADSVKGRFTISRDNAKNTVYLQMNSLKPEDTAVYYCNADTDYRDDMDYWGQGTQVTVSS | high polyreactivity |
| QVQLVESGGGLDQAGGSLRLSCSASGITFKSYAMGWYTQSPGKEREVVAAISRRGGSTYYADSVKGRFTISRDNAKNTVYLQMNSLKQEDTAVYFFAADSGREPKGPSRLTYWGQGTQVTVSS | high polyreactivity |
